Assay results taken from publication PMC12052392 (2025).
Substitutions are numbered along the chain they refer to. “And” between values parts separate entries of the source, which are not always exact repeats. Identical values can stand only once.

T1: GST-fused truncated S2 protein S2 (D1139-E1151) (SARS-CoV-2, UniProt P0DTC2 1139-1151)
T1 chain: DPLQPELDSFKEE

T2: SARS-CoV-2 S2 (T1076-Q1208) antigen, trimeric S2 fusion-core-based antigen (SARS-CoV-2, UniProt P0DTC2 1076-1208)
T2 chain: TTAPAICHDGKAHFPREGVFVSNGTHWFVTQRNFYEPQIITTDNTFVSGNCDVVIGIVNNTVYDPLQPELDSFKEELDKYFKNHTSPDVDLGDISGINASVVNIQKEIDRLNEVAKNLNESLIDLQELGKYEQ

B1: nanobody H145 (VHH)
VHH: QVQLVESGGGLVQTGGSLRLSCEASGSAFSSYAVNWYRQAPGKQREPVAAIGSFNTVYSDSVKGRFTISRDNAKNTVYLQMNSLKPEDTAVYICNARRGATNTWGQGTQVTVSS
modifications: biotin (Biotinylation Kit), only in the BLI with truncated S2 proteins
B2: nanobody H17 (VHH)
VHH: B1 VHH with Q1E, L4V, E23A, I93V, T103Y, S114P
modifications: biotin (Biotinylation Kit), only in the BLI with truncated S2 proteins

What was measured:
[1] = molecular target: T1, GST-fused truncated S2 protein S2 …; assay: ELISA
S2 (G1124-H1159) = assay: ELISA
S2 (D1139-D1153) = assay: ELISA
[2] = molecular target: T2, SARS-CoV-2 S2 (T1076-Q1208) antigen, …; assay: BLI

Binder	EC50 [1] [nM]	EC50 (S2 (G1124-H1159)) [nM]	EC50 (S2 (D1139-D1153)) [nM]	koff [2]
B1	> 170	0.53	1.01	0.000149 s⁻¹ and 0.000129 s⁻¹ and 0.000123 s⁻¹
B2		4.71	4.83	0.000525 s⁻¹ and 0.00023 s⁻¹
